Experimental findings from patent US12428633B2, “Inducible dimerization of recombinases” (TRUSTEES OF BOSTON UNIVERSITY, priority 2016, dated 2025) are described below.

Assay [1] deals with 2-input BLADE decoder in HEK293FT cells. Kind of assay: 4OHT- and ABA-inducible 2-input BLADE decoder. As to conditions: transient transfection, 4OHT 1 μM, ABA 100 μM. The class given is cell-based, human. How it is done: DNA was transfected into the human embryonic kidney cell line (HEK293FT) using a polyethylenimine (PEI) protocol. Cells were plated onto 48-(2504) or 96-well (1004) plates the day prior to transfection (200,000 cells/mL), such that the cells were 50-70% confluent the day of transfection. Cells were kept in a humidified incubator at 37° C. and 5% CO2 and maintained in DMEM medium (Corning) with 10% Heat Inactivated Fetal Bovine Serum (Life Technologies), 50 U.I./mL penicillin/50 μg/mL streptomycin (Corning), 2 mM glutamine (Corning) and 1 mM sodium pyruvate (Lonza). PEI stocks were made from linear polyethylenimine (Polysciences 23966-2) and were dissolved at a concentration of 0.323 g/L in deionized water with the assistance of concentrated hydrochloric acid and sodium hydroxide and then filtered sterilized (0.24 μm). PEI stocks were stored at −80° C. until use and warmed to room temperature prior to usage. […]
(§1) Two days post-transfection and after trypsinization (0.05% Trypsin/0.53 mM EDTA, Corning) and resuspension, all HEK293FT cell populations were analyzed using a Becton Dickinson (BD) LSRFortessa SORP flow cytometer with HTS, except for data in FIG. 5, which were recorded on a BD LSRII. Time-course data was achieved through trypsinization and fixation of cells at particular time points (BD Cytofix) and kept at 4° C. until analyzed through flow cytometry. […]

For assay [2], the system named is BUF logic reporters in HEK293FT. Kind of assay: Recombinase activity, orthogonality and cross-reactivity on BUF logic reporters. Type of assay: cell-based, human. To be noted: transient transfection, dose-response (FIG. 8). On the procedure:
FIG. 8A-8C show recombinase cross-reactivity dose-response profile of Cre, Dre, VCre and Vika. FIG. 8A is a summary of intended and unintended recombination of Cre, Dre, VCre and Vika site-specific recombinases.
DNA was transfected into the human embryonic kidney cell line (HEK293FT) using a polyethylenimine (PEI) protocol. Cells were plated onto 48-(2504) or 96-well (1004) plates the day prior to transfection (200,000 cells/mL), such that the cells were 50-70% confluent the day of transfection. Cells were kept in a humidified incubator at 37° C. and 5% CO2 and maintained in DMEM medium (Corning) with 10% Heat Inactivated Fetal Bovine Serum (Life Technologies), 50 U.I./mL penicillin/50 μg/mL streptomycin (Corning), 2 mM glutamine (Corning) and 1 mM sodium pyruvate (Lonza). […]
as §1

Entries after “also recorded” stand apart in the source; their conditions may differ.

B1: split Flp system: split Flp recombinase construct fused to ABA-binding domains ABI and PYL (SEQ ID NO: 38 and 39) (protein)
chain 1: MSQFDILCKTPPKVLVRQFVERFERPSGEKIASCAAELTYLCWMITHNGTAIKRATFMSYNTIISNSLSFDIVNKSLQFKYKTQKATILEASLKKLIPAWEFTIIPYNGQKHQSDITDIVSSLQLQFESSEEADKGNSHSKKMLKALLSEGESIWEITEKILNSFEYTSRFTKTKTLYQFLFLATFINCGRFSDIKNVDPKSFKLVQNKYLGVIIQCLVTETKTSVSRHIYFFSARGRIDPLVYLDEFLRNSEPVLKRVNRTGNSSSNKQEYQLLKDNLVRSYNKALKKNAPYPIFAIKNGPKSHIGRHLMTSFLSMKGLTELTNVVGNWSDKRASAVARTTYTHQITAIPDHYFALVSRYYAYDPISKEMIALKDETNPIEEWQHIEQLKGSAEGSGGSGSGSSGGSGTPLYGFTSICGRRPEMEDAVSTIPRFLQSSSGSMLDGRFDPQSAAHFFGVYDGHGGSQVANYCRERMHLALAEEIAKEKPMLCDGDTWLEKWKKALFNSFLRVDSEIGSVAPETVGSTSVVAVVFPSHIFVANCGDSRAVLCRGKTALPLSVDHKPDREDEAARIEAAGGKVIQWNGARVFGVLAMSRSIGDRYLKPSIIPDPEVTAVKRVKEDDCLILASDGVWDVMTDEEACEMARKRILLWHKKNAVAGDASLLADERRKEGKDPAAMSAAEYLSKLAIQRGSKDNISVVVVDLKDYKDDDDKPKKKRKV
chain 2: MAPTQDEFTQLSQSIAEFHTYQLGNGRCSSLLAQRIHAPPETVWSVVRRFDRPQIYKHFIKSCNVSEDFEMRVGCTRDVNVISGLPANTSRERLDLLDDDRRVTGFSITGGEHRLRNYKSVTTVHRFEKEEEEERIWTVVLESYVVDVPEGNSEEDTRLFADTVIRLNLQKLASITEAMNYPYDVPDYASGGSGSGSSGGSGTSIRYPAWNGIISQEVLDYLSSYINRRIPKKKRKV
Regarding B1, in assay [1], the “Leaky recombinase behavior on 2-input BLADE decoder” value is on record as “minimal leaky recombinase behavior”.

B2: Cre: full-length tyrosine recombinase, recognizes loxP (protein)
chain: MSNLLTVHQNLPALPVDATSDEVRKNLMDMFRDRQAFSEHTWKMLLSVCRSWAAWCKLNNRKWFPAEPEDVRDYLLYLQARGLAVKTIQQHLGQLNMLHRRSGLPRPSDSNAVSLVMRRIRKENVDAGERAKQALAFERTDFDQVRSLMENSDRCQDIRNLAFLGIAYNTLLRIAEIARIRVKDISRTDGGRMLIHIGRTKTLVSTAGVEKALSLGVTKLVERWISVSGVADDPNNYLFCRVRKNGVAAPSATSQLSTRALEGIFEATHRLIYGAKDDSGQRYLAWSGHSARVGAARDMARAGVSIPEIMQAGGWTNVNIVMNYIRNLDSETGAMVRLLEDGD
On to B2, for which the “Cross-reactivity on other recombinases' reporter constructs” value in assay [2] is “showed cross-reactivity in a dose-dependent manner; also recorded: mutually cross-reactive”.

B3: VCre: full-length tyrosine recombinase (SEQ ID NO: 16), recognizes VloxP (protein)
chain: MIENQLSLLGDFSGVRPDDVKTAIQAAQKKGINVAENEQFKAAFEHLLNEFKKREERYSPNTLRRLESAWTCFVDWCLANHRHSLPATPDTVEAFFIERAEELHRNTLSVYRWAISRVHRVAGCPDPCLDIYVEDRLKAIARKKVREGEAVKQASPFNEQHLLKLTSLWYRSDKLLLRRNLALLAVAYESMLRASELANIRVSDMELAGDGTAILTIPITKTNHSGEPDTCILSQDVVSLLMDYTEAGKLDMSSDGFLFVGVSKHNTCIKPKKDKQTGEVLHKPITTKTVEGVFYSAWETLDLGRQGVKPFTAHSARVGAAQDLLKKGYNTLQIQQSGRWSSGAMVARYGRAILARDGAMAHSRVKTRSAPMQWGKDEKD
B3: the “Cross-reactivity on other recombinases' reporter constructs” value in assay [2] is “showed cross-reactivity in a dose-dependent manner; also recorded: can recombine Vika's recombination sites”.
